Results taken from the supplement of paper PMC12338614.

B1: library; numbered along this chain (parent)
chain: MEVVDPQQLGMFTEGELMSVGMDTFIHRIDSTEVIYQPRRKRAKLIGKYLMGDLLGEGSYGKVKEVLDSETLCRRAVKILKKKKLRRIPNGEANVKKEIQLLRRLRHKNVIQLVDVLYNEEKQKMYMVMEYCVCGMQEMLDSVPEKRFPVCQAHGYFCQLIDGLEYLHSQGIVHKDIKPGNLLLTTGGTLKISDLGVAEALHPFAADDTCRTSQGSPAFQPPEIANGLDTFSGFKVDIWSAGVTLYNITTGLYPFEGDNIYKLFENIGKGSYAIPGDCGPPLSDLLKGMLEYEPAKRFSIRQIRQHSWFRKKHPPAEAPVPIPPSPDTKDRWRSMTVVPYLEDLHGADEDEDLFDIEDDIIYTQDFTVPGQVPEEEASHNGQRRGLPKAVCMNGTEAAQLSTKSRAEGRAPNPARKACSASSKIRRLSACKQQ

Variants of: B1
Assay: STK11 functional score (HeLa growth suppression), rescaled enrichment; synonymous median = 1, nonsense median = 0 (normalised score)
Settings: with HeLa; variant type: missense
In short: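 Codon-randomised (POPCode) libraries of codon-optimised STK11 were integrated by Bxb1 at an AAVS1 landing pad in HeLa, in three regions each transfected three times. Integrants (BFP-negative, mCherry-positive) were FACS-sorted 4–5 days after electroporation and grown about two weeks; tiled gDNA amplicons were sequenced on NextSeq (~2 million reads per tile). The functional score is the wild-type-corrected post/pre-selection log ratio, rescaled to synonymous and nonsense medians, merged over codons and replicate transfections, with bootstrapped error.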

STK11 functional score, by site and new letter:
R106: M 1.59 | H 1.62 | I 1.71 | T 1.69 | V 1.6 | P 1.14 | L 1.15 | Y 1.64 | S 1.49
L113: A 0.492 | I 0.313 | Y 1.67 | Q 1.02 | H 0.781 | R 0.684 | D -0.168 | W 0.222 | G 0.252 | E 1.13 | C 1.16 | S 0.517 | P 0.54 | V 0.44
Q112: I 1.52 | V 1.01 | F 1.11 | R 0.64 | T 1.27 | M 0.897 | P 1.24 | N 1.55 | S 1.1 | A 1.24 | L 1.08 | G 0.967 | Y 1.01 | W 0.604
L117: Y 1.55 | R 1.15 | H 1.05 | V 0.689 | N 1.44 | W 1.29 | Q 1.33 | A 1.27 | F 0.858 | K 1.3 | S 0.291 | T 0.762 | P 0.386 | E 1.45 | G 0.823
N109: I 0.256 | T 0.928 | L 0.662 | W 0.336 | Q 0.886 | A 0.625 | M 0.647 | D 0.477 | V 0.132 | R 0.707 | G 0.374 | S 0.492 | P -0.121 | H -0.0132 | K 1.14
K108: F 1.04 | P 1.35 | A 1.25 | H 1.26 | G 0.95 | W 0.834 | T 1.33 | I 1.43 | L 1.1 | R 1.33 | D 0.31 | N 1.29 | S 0.866 | Q 1.39 | V 0.939
D115: M 1.06 | S 1.6 | E 1.27 | Y 0.294 | N 1.65 | L 1.19 | P 0.396 | V 1.27 | W 0.727 | G 0.497 | R 1.52
I111: L 0.392 | T 0.687 | G 0.385 | R 1.16 | P 1.25 | S 0.535 | W -0.448 | F 0.365 | Y 0.97 | M 0.886 | Q 1.66 | D 1.6 | V 0.948
V114: P 0.872 | A 0.829 | W 0.805 | R 0.501 | Y 1.59 | L 0.271 | D 1.17 | C 0.202 | T 1.43 | F 1.03 | S 0.384
V110: E -0.206 | C 0.955 | S 0.535 | Y 0.623 | T 1.51 | L 1.23 | D 0.338 | R -0.0313 | H 0.958 | M 0.358 | A 0.184 | G 0.297 | P 0.481 | W 0.328 | I 0.703 | N 0.651
V116: R 0.888 | E 1.52 | I 0.327 | H 1.18 | P 0.975 | L 1.14 | C 0.415 | W 0.541 | N 0.962 | G 0.415 | S 0.887 | A 0.197
H107: M 0.523 | R 0.205 | F 0.159 | G 0.812 | S 0.803 | L 0.324 | Y 0.262 | E 0.776 | T 1.02 | P 0.25 | W 0.165 | V 0.138 | A 0.964 | I 0.0231
Y118: C 0.723 | F 0.519 | I 1.32 | H 1.14 | A 0.627 | E -0.175 | G 1.23 | K 0.568
